Measurements from patent US20250019449A1 (Memorial Sloan Kettering, published 2025).
Positions count from the first letter of the chain named.

B1: ADI-40327 (antibody, V domains shown)
VH: QVQLQESGPGLVKPSETLSLTCAVSGYSISSGYYWGWIRQPPGKGLEWIGSIYHSGNTYYRPSLKSRVTISVDTSKNQFSLKLSSVTAADTAVYYCARGKGGSWTAFGPWGQGTLVTVSS
VL: DIQMTQSPSSLSASVGDRVTITCRASQSISSFLNWYQQKPGKAPKLLISAASSLQSGVPSRFSGSGSGTDFTLTISSLQPEDFATYYCQQGHSTPPTFGGGTKVEIK
B2: ADI-40352 (antibody, V domains shown)
VH: QLQLQESGPGLVKPSETLSLTCTVSGGSISSSSYAWGWIRQPPGKRLEWIGSIYYTGSTYYNPSLKSRVTISVDTSKNQFSLKLSSVTAADTAVYYCLRGHRRDYIAFDIWGQGTMVTVSS
VL: DIQMTQSPSSLSASVGDRVTITCRASQSISSYLNWYQQKPGKAPKLLIYAASSLQSGVPSRFSGSGSGTDFTLTISSLQPEDFATYYCQQSHNLPTFGGGTKVEIK
B3: ADI-40360 (antibody, V domains shown)
VH: B2 VH with L98V
VL: B2 VL
B4: ADI-46663 (antibody, V domains shown)
VH: EVQLVESGGGLVQPGGSLRLSCAASGFTFNAYAMNWVRQAPGKGLEWVARIRSKSNNYATYYADSVKDRFTISRDDSKNSLYLQMNSLKTEDTAVYYCVRQSYGNSNYAMDYWGQGTTVTVSS
VL: DIVMTQSPLSLPVTPGEPASISCRSSKSLLHSNGNTYLYWYLQKPGQSPQLLIYRMSNLASGVPDRFSGSGSGTDFTLKISRVEAEDVGVYYCMQHLEYPFTFGGGTKVEIK
B5: ADI-40306 (antibody, V domains shown)
VH: QVQLVESGGGVVQPGRSLRLSCAASGFTFSSYGMHWVRQAPGKGLEWVAVISYDGSNKYYAFSVKGRFTISRDNSKNTLYLQMNSLRVEDTAVYYCARVRRIAGRAGYGMDVWGQGTTVTVSS
VL: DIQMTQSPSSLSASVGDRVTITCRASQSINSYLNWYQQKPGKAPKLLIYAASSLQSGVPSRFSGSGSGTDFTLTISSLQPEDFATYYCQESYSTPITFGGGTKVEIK
B6: ADI-35281 (antibody, V domains shown)
VH: EVKLEQSGGGLVQPKGSLKLSCVASGFTFNAYAMNWVRQAPGQGLEWVARIRSKSNNYATYYAASVKDRFTISRDDSQSILYLQMNNLKTEDTAMYYCVRQSYGNSNYAMDYWGQGTTVTVSS
VL: DIQLTQSPPSVPVTPGESVSISCRSSKSLLHSNGNTYLYWFLQRPGQSPQLLIYRKSNLASGVPDRFSGSGSGTAFTLRISRVEAEDVGVYYCMQHLEYPFTFGGGTKLEIK
notes: Produced as IgG

Each binder was assayed against T1, human CCR8 (human, UniProt P51685 1-355) (assay: cell-based or functional assay).
T1 sequence (P51685 whole entry): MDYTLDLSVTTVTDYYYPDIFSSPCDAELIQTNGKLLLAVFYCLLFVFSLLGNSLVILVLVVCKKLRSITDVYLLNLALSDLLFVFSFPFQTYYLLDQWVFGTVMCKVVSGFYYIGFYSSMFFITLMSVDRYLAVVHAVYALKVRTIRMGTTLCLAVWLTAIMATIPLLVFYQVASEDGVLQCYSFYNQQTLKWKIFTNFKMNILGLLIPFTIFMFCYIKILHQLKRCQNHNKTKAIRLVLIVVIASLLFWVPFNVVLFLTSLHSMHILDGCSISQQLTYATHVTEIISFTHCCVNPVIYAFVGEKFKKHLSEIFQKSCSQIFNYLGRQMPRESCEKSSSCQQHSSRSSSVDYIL

Row | Binder | EC50 of hCCR8-specific internalization
1 | B1 | 14.3 µg/mL
2 | B2 | 5.7 µg/mL
3 | B3 | 2.8 µg/mL

Target: T1, human CCR8
Assay: cell-based or functional assay
Remark: another data set of the same source

Row | Binder | IC50 antagonism of EC80 Human CCL1 Gα15/16 Biosensor | IC50 antagonism of EC80 Human CCL1 Gαz Biosensor
4 | B1 | 4.61 nM | 5.46 nM
5 | B4 | 1.26 nM | 1.79 nM
6 | B2 | 0.439 nM | 2.39 nM
7 | B3 | 1.78 nM | 1.14 nM
8 | B5 | 29.8 nM | 18.9 nM

These binders were tested against T1, human CCR8 (assay: flow cytometry on mammalian cells expressing human CCR8).

Row | Binder | MFI Fold over Background
9 | B6 | 336 fold over background
